Earlier results, collected in publication PMC8781899.
Read-outs that look alike come from different tables or passages of the source.

How the values were obtained:
[1] = target: DR4 (Homo sapiens) (UniProt O00220)
[2] = target: DR4 (Homo sapiens) (UniProt O00220); remark: listed apart in the source

Chain of UniProt O00220 (O00220 24-468): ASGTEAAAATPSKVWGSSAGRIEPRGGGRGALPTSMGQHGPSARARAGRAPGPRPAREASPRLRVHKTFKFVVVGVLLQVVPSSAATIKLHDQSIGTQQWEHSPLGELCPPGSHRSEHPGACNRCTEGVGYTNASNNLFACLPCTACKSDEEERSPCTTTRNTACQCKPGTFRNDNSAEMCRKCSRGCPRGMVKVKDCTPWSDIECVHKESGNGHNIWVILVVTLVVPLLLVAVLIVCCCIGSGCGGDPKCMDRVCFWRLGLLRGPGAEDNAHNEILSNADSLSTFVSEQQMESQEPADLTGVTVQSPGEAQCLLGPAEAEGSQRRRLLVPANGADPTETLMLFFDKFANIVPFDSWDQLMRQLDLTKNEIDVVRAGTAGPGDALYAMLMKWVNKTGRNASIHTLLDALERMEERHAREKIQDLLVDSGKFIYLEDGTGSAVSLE
Chain of TRAIL (P50591 whole entry): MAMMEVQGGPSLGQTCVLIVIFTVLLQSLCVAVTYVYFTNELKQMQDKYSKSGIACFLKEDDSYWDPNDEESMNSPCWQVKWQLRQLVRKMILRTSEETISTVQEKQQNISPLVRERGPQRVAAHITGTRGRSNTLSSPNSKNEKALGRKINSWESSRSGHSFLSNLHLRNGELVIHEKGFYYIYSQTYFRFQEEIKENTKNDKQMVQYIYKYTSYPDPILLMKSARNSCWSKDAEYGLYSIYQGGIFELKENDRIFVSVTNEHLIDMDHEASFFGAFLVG

For TRAIL (from UniProt P50591), which Kd [1] is on record?
Its Kd is 0.17 nM.

With “TRAIL D269H/E195R (DHER) (from UniProt P50591)” as the substance, how does the Kd [2] read?
The Kd was 2.9 nM.
